Columns and labels:
Experiment in all cases: IEDB peptide-MHC binding, purified MHC/competitive/radioactivity; filed as Kd, often an IC50 or EC50 that approximates it; ≥ and ≤ were set here for values at or beyond the usual limits of such assays
HLA-A*03:01 = target: HLA-A*03:01
HLA-A*11:01 = target: HLA-A*11:01
HLA-A*31:01 = target: HLA-A*31:01
HLA-A*33:01 = target: HLA-A*33:01
HLA-A*68:01 = target: HLA-A*68:01
[1] = source organism: Vaccinia virus WR
[2] = source organism: Lymphocytic choriomeningitis virus (strain Armstrong)
[3] = source organism: SARS coronavirus Tor2
[4] = source organism: Vaccinia virus Copenhagen
[5] = source organism: Mammarenavirus whitewaterense
[6] = source organism: Dengue virus 2 Jamaica/1409/1983
[7] = source organism: Dengue virus 3 Martinique/1243/1999
[8] = source organism: Dengue virus 1 Brazil/97-11/1997
[9] = source organism: Dengue virus 4 Philippines/H241/1956

SVLCVKKFY showed a Kd (HLA-A*03:01; [1]) of 13.3 µM, a Kd (HLA-A*11:01; [1]) of 0.372 µM and a Kd (HLA-A*31:01; [1]) of 7.98 µM. The Kd (HLA-A*33:01; [1]) was 12.9 µM and the Kd (HLA-A*68:01; [1]) was 2.1 µM.
Work on NARGEDTQMR yielded a Kd (HLA-A*03:01; [1]) of no less than 41.4 µM, a Kd (HLA-A*11:01; [1]) of no less than 69 µM and a Kd (HLA-A*31:01; [1]) of 1.77 µM. For the same sequence, the Kd (HLA-A*33:01; [1]) was 2.12 µM and the Kd (HLA-A*68:01; [1]) was 0.0162 µM.
With GNFSWFPHK the Kd (HLA-A*03:01; [2]) was 0.159 µM, the Kd (HLA-A*11:01; [2]) was 0.0802 µM and the Kd (HLA-A*31:01; [2]) was 1.35 µM. The Kd (HLA-A*33:01; [2]) was 6.31 µM and the Kd (HLA-A*68:01; [2]) was 1.83 µM.
ASANLAATK showed a Kd (HLA-A*03:01; [3]) of 0.0771 µM, a Kd (HLA-A*11:01; [3]) of 0.0144 µM and a Kd (HLA-A*31:01; [3]) of 1.03 µM. The Kd (HLA-A*33:01; [3]) was no less than 77.7 µM and the Kd (HLA-A*68:01; [3]) was 0.0783 µM.
IVHSYLKNY was tested, and the Kd (HLA-A*03:01; [1]) was no less than 21.6 µM, the Kd (HLA-A*11:01; [1]) was 1.23 µM and the Kd (HLA-A*31:01; [1]) was no less than 25.5 µM. It also gave a Kd (HLA-A*33:01; [1]) of no less than 77.7 µM and a Kd (HLA-A*68:01; [1]) of no less than 23.8 µM.
For SVLDIISSK, the Kd (HLA-A*03:01; [4]) was 0.0234 µM, the Kd (HLA-A*11:01; [4]) was 0.00672 µM and the Kd (HLA-A*31:01; [4]) was 1.67 µM. The Kd (HLA-A*33:01; [4]) was 4.41 µM and the Kd (HLA-A*68:01; [4]) was 0.184 µM.
LSYIYSEIK showed a Kd (HLA-A*03:01; [1]) of 0.026 µM, a Kd (HLA-A*11:01; [1]) of 0.0273 µM and a Kd (HLA-A*31:01; [1]) of 8.6 µM. It also gave a Kd (HLA-A*33:01; [1]) of 1.59 µM and a Kd (HLA-A*68:01; [1]) of 0.252 µM.
EASIQPITR showed a Kd (HLA-A*68:01; source organism: Homo sapiens) of 0.05 µM.
For PCMINDTHFL, the Kd (HLA-A*03:01; [5]) was no less than 70 µM, the Kd (HLA-A*11:01; [5]) was no less than 46.8 µM and the Kd (HLA-A*31:01; [5]) was 11.6 µM. The Kd (HLA-A*33:01; [5]) was no less than 48.5 µM and the Kd (HLA-A*68:01; [5]) was no less than 40.1 µM.
For MLNILNRRRR, the Kd (HLA-A*31:01; [6]) was 0.0141 µM.
Work on PVYISQFSYK yielded a Kd (HLA-A*03:01; [4]) of 0.00126 µM, a Kd (HLA-A*11:01; [4]) of 0.0192 µM and a Kd (HLA-A*31:01; [4]) of 0.0133 µM. The Kd (HLA-A*33:01; [4]) was 0.054 µM and the Kd (HLA-A*68:01; [4]) was 0.0952 µM.
MWSLMYFHRR showed a Kd (HLA-A*31:01; [7]) of 0.0115 µM and a Kd (HLA-A*33:01; [7]) of 0.0312 µM.
FLIVSLCPTK gave a Kd (HLA-A*03:01; [1]) of 0.219 µM, a Kd (HLA-A*11:01; [1]) of 0.0022 µM and a Kd (HLA-A*31:01; [1]) of no less than 25.6 µM. It also gave a Kd (HLA-A*33:01; [1]) of 15.1 µM and a Kd (HLA-A*68:01; [1]) of 0.977 µM.
SYQYLIIQNR showed a Kd (HLA-A*03:01; [2]) of 9.78 µM, a Kd (HLA-A*11:01; [2]) of no less than 69.7 µM and a Kd (HLA-A*31:01; [2]) of 0.000953 µM. The Kd (HLA-A*33:01; [2]) was 0.0543 µM and the Kd (HLA-A*68:01; [2]) was 1.69 µM.
SIENKHQRR was tested, and the Kd (HLA-A*03:01; [1]) was no less than 23.9 µM, the Kd (HLA-A*11:01; [1]) was 6.37 µM and the Kd (HLA-A*31:01; [1]) was 0.165 µM. For the same sequence, the Kd (HLA-A*33:01; [1]) was 0.696 µM and the Kd (HLA-A*68:01; [1]) was 0.627 µM.
For TSVDIETAIR, the Kd (HLA-A*03:01; [1]) was 2.98 µM, the Kd (HLA-A*11:01; [1]) was 0.581 µM and the Kd (HLA-A*31:01; [1]) was 0.922 µM. The Kd (HLA-A*33:01; [1]) was 1.44 µM and the Kd (HLA-A*68:01; [1]) was 0.00135 µM.
For TTVITPMLR, the Kd (HLA-A*33:01; [7]) was 0.0367 µM and the Kd (HLA-A*68:01; [7]) was 0.0118 µM.
Sequence ISSIIRSLPK has a Kd (HLA-A*11:01; [5]) of 0.023 µM.
With DTIESAKTK the Kd (HLA-A*03:01; [1]) was 4.1 µM, the Kd (HLA-A*11:01; [1]) was 0.672 µM and the Kd (HLA-A*31:01; [1]) was 11.3 µM. The Kd (HLA-A*33:01; [1]) was 3.59 µM and the Kd (HLA-A*68:01; [1]) was 0.00582 µM.
Sequence LMRFITAETH has a Kd (HLA-A*31:01; [2]) of 0.411 µM, a Kd (HLA-A*33:01; [2]) of 5.45 µM and a Kd (HLA-A*68:01; [2]) of 3.54 µM.
With LVYFSTQQNK the Kd (HLA-A*03:01; [1]) was 0.000977 µM, the Kd (HLA-A*11:01; [1]) was 0.00156 µM and the Kd (HLA-A*31:01; [1]) was 5.23 µM. For the same sequence, the Kd (HLA-A*33:01; [1]) was no less than 44.6 µM and the Kd (HLA-A*68:01; [1]) was 0.00403 µM.
With VMAFIAFLR the Kd (HLA-A*03:01; [8]) was 0.0385 µM, the Kd (HLA-A*11:01; [8]) was 0.171 µM and the Kd (HLA-A*31:01; [8]) was 0.00133 µM. The Kd (HLA-A*33:01; [8]) was 0.00468 µM and the Kd (HLA-A*68:01; [8]) was 0.00451 µM.
MVLAFITFLR showed a Kd (HLA-A*11:01; [9]) of 0.971 µM, a Kd (HLA-A*31:01; [9]) of 0.00434 µM and a Kd (HLA-A*33:01; [9]) of 0.0223 µM. For the same sequence, the Kd (HLA-A*68:01; [9]) was 0.0174 µM.
For LFDFVNFVK, the Kd (HLA-A*03:01; [1]) was 0.812 µM, the Kd (HLA-A*11:01; [1]) was 0.145 µM and the Kd (HLA-A*31:01; [1]) was 0.798 µM. The Kd (HLA-A*33:01; [1]) was 9.1 µM and the Kd (HLA-A*68:01; [1]) was 0.128 µM.
DYMTSMKRFK was tested, and the Kd (HLA-A*33:01; [8]) was 0.0212 µM.
With FNMLKRARNR the Kd (HLA-A*33:01; [8]) was 0.421 µM.
In the case of GIFVDTMSIY, the Kd (HLA-A*03:01; [1]) is reported as 3.79 µM, the Kd (HLA-A*11:01; [1]) is reported as 0.815 µM and the Kd (HLA-A*31:01; [1]) is reported as no less than 70 µM. It also gave a Kd (HLA-A*33:01; [1]) of no less than 28.5 µM and a Kd (HLA-A*68:01; [1]) of 3.38 µM.
LSDENYLLK was tested, and the Kd (HLA-A*03:01; [1]) was 0.591 µM, the Kd (HLA-A*11:01; [1]) was 0.00159 µM and the Kd (HLA-A*31:01; [1]) was 1.5 µM. For the same sequence, the Kd (HLA-A*33:01; [1]) was no less than 66.1 µM and the Kd (HLA-A*68:01; [1]) was 13.5 µM.
Work on EANASAQTK yielded a Kd (HLA-A*03:01; [1]) of 1.56 µM, a Kd (HLA-A*11:01; [1]) of 2.6 µM and a Kd (HLA-A*31:01; [1]) of no less than 56.3 µM. For the same sequence, the Kd (HLA-A*33:01; [1]) was 12.5 µM and the Kd (HLA-A*68:01; [1]) was 0.0273 µM.
KIKTNDINVR gave a Kd (HLA-A*03:01; [1]) of 2.91 µM, a Kd (HLA-A*11:01; [1]) of 11.3 µM and a Kd (HLA-A*31:01; [1]) of 0.103 µM. The Kd (HLA-A*33:01; [1]) was no less than 21 µM and the Kd (HLA-A*68:01; [1]) was 9.08 µM.
LLMPILTLTR gave a Kd (HLA-A*03:01; [3]) of 0.571 µM, a Kd (HLA-A*11:01; [3]) of 0.199 µM and a Kd (HLA-A*31:01; [3]) of 0.00553 µM. The Kd (HLA-A*33:01; [3]) was 0.262 µM and the Kd (HLA-A*68:01; [3]) was 0.0897 µM.
For TSGSPIIDK, the Kd (HLA-A*11:01; source organism: Dengue virus 2 16681-PDK53) was 0.0694 µM.
SYSMCTGKFK showed a Kd (HLA-A*33:01; [6]) of 0.841 µM.
For TLISLNSMY, the Kd (HLA-A*03:01; [1]) was 0.155 µM, the Kd (HLA-A*11:01; [1]) was 0.282 µM and the Kd (HLA-A*31:01; [1]) was 8.06 µM. For the same sequence, the Kd (HLA-A*33:01; [1]) was 15 µM and the Kd (HLA-A*68:01; [1]) was 0.0468 µM.
TIRHMWSVVY gave a Kd (HLA-A*03:01; [1]) of 0.294 µM, a Kd (HLA-A*11:01; [1]) of 3.08 µM and a Kd (HLA-A*31:01; [1]) of no less than 57 µM. The Kd (HLA-A*33:01; [1]) was no less than 70 µM and the Kd (HLA-A*68:01; [1]) was 2.86 µM.
VSMTYLYNK was tested, and the Kd (HLA-A*03:01; [1]) was 0.0725 µM, the Kd (HLA-A*11:01; [1]) was 0.00136 µM and the Kd (HLA-A*31:01; [1]) was 0.00276 µM. The Kd (HLA-A*33:01; [1]) was 0.806 µM and the Kd (HLA-A*68:01; [1]) was 0.0827 µM.
For DIQQWEPSR, the Kd (HLA-A*33:01; [6]) was 0.113 µM.
In the case of LIKFISDNK, the Kd (HLA-A*03:01; [1]) is reported as 0.151 µM, the Kd (HLA-A*11:01; [1]) is reported as 0.222 µM and the Kd (HLA-A*31:01; [1]) is reported as 0.12 µM. The Kd (HLA-A*33:01; [1]) was 0.624 µM and the Kd (HLA-A*68:01; [1]) was 0.0011 µM.
For ASMGFKVTTR, the Kd (HLA-A*03:01; [1]) was 0.014 µM, the Kd (HLA-A*11:01; [1]) was 0.000174 µM and the Kd (HLA-A*31:01; [1]) was 0.000416 µM. For the same sequence, the Kd (HLA-A*33:01; [1]) was 0.532 µM and the Kd (HLA-A*68:01; [1]) was 0.0154 µM.
DILGVLTIK showed a Kd (HLA-A*03:01; [1]) of 0.714 µM, a Kd (HLA-A*11:01; [1]) of 1.12 µM and a Kd (HLA-A*31:01; [1]) of 12.6 µM. The Kd (HLA-A*33:01; [1]) was 0.194 µM and the Kd (HLA-A*68:01; [1]) was 0.343 µM.

Source: the Immune Epitope Database (IEDB)
